Paper PMC4837482, “The complex binding mode of the peptide hormone H2 relaxin to its receptor RXFP1” (Nature Communications, 2016)
Changes are numbered by the printed parent chain.

Columns and labels:
Assay in all cases: cAMP activity assay (pCRE β-galactosidase reporter), transfected HEK293T cells
Type in all cases: cell-based
[1] = biological target: T1, RXFP1 F50A^ins (Homo sapiens, UniProt Q9HBX9, INS72A); conditions: construct F50A^ins, ±s.e.m.
T1 construct: transiently transfected human embryonic kidney (HEK) 293T cells expressing full-length RXFP1 and mutants; expressed in transfected cells; host or cells: HEK293T
T1 sequence (Q9HBX9 with tags, fused parts or gaps INS72A limits assumed): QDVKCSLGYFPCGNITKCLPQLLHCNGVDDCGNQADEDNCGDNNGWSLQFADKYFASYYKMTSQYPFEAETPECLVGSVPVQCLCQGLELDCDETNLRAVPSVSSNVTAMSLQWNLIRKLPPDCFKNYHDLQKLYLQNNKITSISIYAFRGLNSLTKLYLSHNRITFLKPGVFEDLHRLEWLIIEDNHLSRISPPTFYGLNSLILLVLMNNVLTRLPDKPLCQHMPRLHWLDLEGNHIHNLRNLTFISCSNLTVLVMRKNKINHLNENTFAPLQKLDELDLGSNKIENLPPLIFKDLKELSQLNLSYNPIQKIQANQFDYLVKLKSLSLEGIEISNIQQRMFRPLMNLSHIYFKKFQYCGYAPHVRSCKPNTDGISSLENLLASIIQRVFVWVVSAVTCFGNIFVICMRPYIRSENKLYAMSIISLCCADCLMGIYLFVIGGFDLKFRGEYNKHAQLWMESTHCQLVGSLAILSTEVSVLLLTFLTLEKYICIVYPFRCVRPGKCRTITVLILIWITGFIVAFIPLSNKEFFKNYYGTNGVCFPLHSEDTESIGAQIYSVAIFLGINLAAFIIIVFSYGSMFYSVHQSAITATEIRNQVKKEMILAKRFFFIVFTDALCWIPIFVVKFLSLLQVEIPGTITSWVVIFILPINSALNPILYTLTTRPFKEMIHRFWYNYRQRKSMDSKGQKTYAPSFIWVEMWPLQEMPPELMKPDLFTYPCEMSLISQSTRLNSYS
Summary of the method: (§1)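 Stim: H2 relaxin in minimal media/1% DMSO; +ctrl 5 μM Forskolin, −ctrl vehicle. Plates frozen −80 °C o/n, lysed 10 min + 10 min in Na2HPO4 pH 8.0 buffers, CPRG substrate, A570. Data = % Forskolin max.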

[2] = biological target: T2, RXFP1 G41D42-AA (Homo sapiens, UniProt Q9HBX9, D64A/G63A)
T2 construct: transiently transfected human embryonic kidney (HEK) 293T cells expressing full-length RXFP1 and mutants; expressed in transfected cells; host or cells: HEK293T
T2 sequence (Q9HBX9 23-757 G63A/D64A limits assumed): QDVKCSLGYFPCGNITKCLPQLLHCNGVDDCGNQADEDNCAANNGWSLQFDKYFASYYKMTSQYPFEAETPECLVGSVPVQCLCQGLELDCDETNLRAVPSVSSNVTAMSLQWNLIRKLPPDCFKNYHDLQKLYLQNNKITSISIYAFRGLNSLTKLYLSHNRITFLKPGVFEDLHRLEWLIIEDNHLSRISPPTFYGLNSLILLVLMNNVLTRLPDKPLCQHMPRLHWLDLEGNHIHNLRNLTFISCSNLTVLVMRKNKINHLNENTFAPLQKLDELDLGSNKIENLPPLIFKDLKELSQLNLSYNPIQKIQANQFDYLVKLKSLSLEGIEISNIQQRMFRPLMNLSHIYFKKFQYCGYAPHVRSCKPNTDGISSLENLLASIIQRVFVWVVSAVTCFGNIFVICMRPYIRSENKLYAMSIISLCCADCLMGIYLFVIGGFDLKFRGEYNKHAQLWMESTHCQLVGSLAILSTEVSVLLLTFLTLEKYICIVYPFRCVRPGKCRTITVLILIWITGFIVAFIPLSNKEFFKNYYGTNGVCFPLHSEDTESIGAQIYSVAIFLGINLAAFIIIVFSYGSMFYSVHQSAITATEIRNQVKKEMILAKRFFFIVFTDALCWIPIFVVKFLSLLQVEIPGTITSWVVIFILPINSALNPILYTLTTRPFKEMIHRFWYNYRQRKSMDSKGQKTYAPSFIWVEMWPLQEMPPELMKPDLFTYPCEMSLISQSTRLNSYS
Summary of the method: as §1

[3] = biological target: T3, RXFP1 W46A (Homo sapiens, UniProt Q9HBX9, W68A); conditions: construct W46A, ±s.e.m.
T3 construct: transiently transfected human embryonic kidney (HEK) 293T cells expressing full-length RXFP1 and mutants; expressed in transfected cells; host or cells: HEK293T
T3 sequence (Q9HBX9 23-757 W68A limits assumed): T2 sequence (Q9HBX9 23-757 G63A/D64A limits assumed) with A41G, A42D, W46A
Summary of the method: as §1

[4] = percentage of maximum response to 5 μM Forskolin

H2 relaxin: two-chain 6-kDa peptide hormone structurally related to insulin; recombinant human gene-2 H2 relaxin provided by Corthera
H2 relaxin pEC50 ([1]; cAMP reporter): 9.41±0.13 (3)
H2 relaxin Emax [1, 4]: 93.62±5.34 (3) %
loss of H2 relaxin-stimulated cAMP activity ([2]; G41A/D42A RXFP1 versus wild-type RXFP1): 5,000 fold
H2 relaxin Emax ([2]; construct G41D42-AA, percentage of maximum response to 5 μM Forskolin, ±s.e.m.): 106.8±46.67 (3) %
H2 relaxin pEC50 ([3]; cAMP reporter): 7.02±0.18 (3)
H2 relaxin Emax [3, 4]: 109.6±13.69 (3) %
